Test: yeast display, Sf9 membrane polyspecificity reagent, FACS + sequencing; frameworks hold sequencing errors
Outline: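 After 36–48 hours of galactose induction, yeast (Saccharomyces cerevisiae BJ5465) displaying a synthetic nanobody library were stained at 4 °C for 1 hour with 10% biotinylated, detergent-solubilized Sf9 membrane reagent. Streptavidin microbeads enriched the stained cells before FACS sorting into low and high (top ~1%) gates on anti-HA and streptavidin fluorescence. Each clone's polyreactivity label reflects its gate of origin.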

Sequence	polyreactivity (PSR sort gate)
QVQLVESGGGLVQAGGSLRLSCAASGITFLHYAMGWYRQAPGQERELVAAIDYSGGSTYYADSVKGRFTISRDNAKNTVYLEMKSLKPEDTAVYYCNARVPRYNGGSTMEYWGQGTQVTVSS	high polyreactivity
QVQLVESGGGLVQAGGSLRLSCAASGITFLPYAMGWYRQAPGKERELVAAITRGGGSTYADSVKGRFTISRDNAKNSVYFQMISLKPEDTAVYYCAKLYGRGSWYEDYDYWGQGTQVTVSS	low polyreactivity
QVQLVESGGGLVQAGGSLRLSCAASGITFNLNDMGWYRQAPGKERELVAAITSGGNTSYADSVKGRFTISRDNAKNTVYLQMNSLKPEDTAVYYCAADLHTELYKMDYWGQGTQVTVSS	low polyreactivity
QVQLVESGGGLVQAGGSLRLSCAASGITFNPYTMGWYRQAPGKERELVADINRGGDTTYADSVKGRFTISRDNAKNTVYLQMNSLKPEDTAVYYCAKRLVQWMDYWGQGTQVTVSS	low polyreactivity
QVQLVESGGGLVQAGGSLRLSCAASGITFNTYTMVWYTQAPGKERELVAAISGSSGRTYYADSVKGRFTISRDNAKNTVYLQMNSLNPEDTAVYYCAAYAVESYKYDYWGHGTQVTVSS	high polyreactivity
QVQLVESGGGLVQAGGSLRLSCAASGITFNVLAMGWYRQAPGKEREFVAAISTRDGTTYADSLKGRFTISRDNAKNTVYLQMNSLKPEDTAVYYCAAAYYYDGQQGDFDYWGQGTQVTVSS	low polyreactivity
QVQLVESGGGLVQAGGSLRLSCAASGITFNVNAMGWYRQAPGKERELVARITTSGGSTSYADSVKGRFTISRDNAKNTVYLQMNSLKPEDTAVYYFAADRARYYSEYDYWGQGTQVTVSS	low polyreactivity
QVQLVESGGGLVQAGGSLRLSCAASGITFNYNAMGWYRQAPGKERELVARITWSGTRTYYADSVKGRYTISRDNAKNTVYLQMNSLKPEDTAVYYCNADPYARYYWGQGTQVTVSS	high polyreactivity
QVQLVESGGGLVQAGGSLRLSCAASGITFPDYAMGWYRQAPGKERELVAAISRGVNTYYADSVKGRFTISRDNAKNTVYLQMNSLKPEDTAVYYCNRRGSSGYDYWGQGSQVTVSS	low polyreactivity
QVQLVESGGGLVQAGGSLRLSCAASGITFPGNAMGWYRQAPGKERELVAGISDGDSTNYADSVKGRFTISRDNAKNTVYLQMNSLKPEDTAVYYCNAQGTTETSGGGFFRGMDYWGQGTQVTVSS	low polyreactivity
QVQLVESGGGLVQAGGSLRLSCAASGITFPGYAMGWYRQATGKERELVAVIRKSGTSTYYADSVKGRFTISRDTAKNTVYLQMNSLKPEDTAVYYCAAGGPSTLDDYWGQGTQVTVSS	low polyreactivity
QVQLVESGGGLVQAGGSLRLSCAASGITFPINAMGWSRQAPGKEREFVATISFSGASTYYADSVKGRFTISRDNAKNTVYLQMNSLKPEDTAVYYCAADLSLSTGGRAFPTYGYWGQGTQVTVSS	high polyreactivity
QVQLVESGGGLVQAGGSLRLSCAASGITFPLYAMGWYRQAPGKERELVATISGRGGSTYYADSVKGRFTISRDNAKNTVYLQMNSLKPEDTAVYYCNADFRSPYFLLSWYHSGDYWGQGTQVTGSS	low polyreactivity
QVQLVESGGGLVQAGGSLRLSCAASGITFPLYVMGWSRQAPGKERELVAAISASGGSTYADSVKGRFTISRDNAKNTVYLQMNSLKPEDTAVYYCNADVYVGYDYDYWGQGTLVTVSS	low polyreactivity
QVQLVESGGGLVQAGGSLRLSCAASGITFPNYTMGWYRQAPWKERELLAAISYNGGGTYYADSVNGRFTISRYKAKNTVYVQKNSLKPEDTAVYYCAALGLYGDYLRYDYWGQGTQVSVSS	high polyreactivity
QVQLVESGGGLVQAGGSLRLSCAASGITFPRYAMGWYRQAPGKERELVAAISKSGGRTYYADSVKGRFTISRDNAKNTVYLQMISLKPEDTAVYYCAADPLLGYLSHYYWGQGTQVTVSS	high polyreactivity
QVQLVESGGGLVQAGGSLRLSCAASGITFPRYAMGWYRQAPGKERELVATITRSGGGTYYADSVKGRFTISRDNAKNTVYLQMNSLKPEDTAVYYCAAGALQRGVYGYGYWGQGTQVTVSS	high polyreactivity
QVQLVESGGGLVQAGGSLRLSCAASGITFPSYVMGWYRQAPGKERELVAAISWRGGSTYYADSVKGRFTISRDNAKNTVYLQMNSLKPEDTAVYYCAAGSARDDDYWGQGTQVTVSS	high polyreactivity
QVQLVESGGGLVQAGGSLRLSCAASGITFPYYAMGWYREAPGKERELVAAITQSGGSTYYADSVKGRFTISRDNAKNTVYLQMNSLKPEDTAVYYCAADSSRSVNYYRYDYWGQGTQVTLSS	low polyreactivity
QVQLVESGGGLVQAGGSLRLSCAASGITFPYYAMGWYRQAPGKERELVAAISAGGTRTYYADSVKGRFTISRDNAKNNVYLQMNSLKPEDTAVYYCAARVWPIVQNYYWGQGTQVTVSS	high polyreactivity
QVQLVESGGGLVQAGGSLRLSCAASGITFPYYAMGWYRQAPGKERELVAAITIRSGRTYYADSVKGRFTISRDNAMNTVYLQMNSLKPEDTAVYYCAARLSNTYGYWGQGTQVTVSS	high polyreactivity
QVQLVESGGGLVQAGGSLRLSCAASGITFPYYAMGWYRQAPGKERELVASINRSGGTNYADSVKGRFTISRDNAKNTVYLPMNSLKPVDTAVYYCAAPGRYGEYDYWGQGTQVNVSS	low polyreactivity

Sequence	polyreactivity (PSR sort gate)
QVQLVESGGGLVQAGGSLRLSCAASGITFPYYGMGWYRQAPGKERELVAAISRGGRTNYADSVKGRFTISRDNAKNTVYLQMNSLKPEDTAVYYCNTRTWSVFAKSDYWGQGTQVTVSS	high polyreactivity
QVQLVESGGGLVQAGGSLRLSCAASGITFQNYAMGWYRQAPGKEMELVAAITRSGGRTYYADSVKGRFTNSRDNANYTVYLQMNSLKQEDTAVYYCAVYGIGRPYWYDYWGQGTQVTVSS	high polyreactivity
QVQLVESGGGLVQAGGSLRLSCAASGITFQNYAMGWYRQSPGKERELVAAITRSGGRTYYADSVKGRFTISRDNAKNTVYLQINSLKPEDTAVYYCAFYGIGRPYWYDYWGQGTQVTVSS	high polyreactivity
QVQLVESGGGLVQAGGSLRLSCAASGITFQSNAMGWYRQAPGKERELVAAIDWRGDSTYYADSVKGRFTISRDNAKNTVYLQMNSLKPEDTAVYYCNADISGSGQWDGYDYWGQGTQVTVSS	low polyreactivity
QVQLVESGGGLVQAGGSLRLSCAASGITFQWNALGWYRQAPGTERELVAAITRSGGRTYYADSVKGRFTISRDNAKNTVYLQMYSLKPEDTAVYYCAARYWDNPYWFDYWGQGTQVTVSS	high polyreactivity
QVQLVESGGGLVQAGGSLRLSCAASGITFQYYAMGWYRQAPGKERELVAAISSGGSTYYADSVKGRFTISRDNAKNTVYLQMNILKPEDTAVYYCAAKRVFFGLNYDYWGQGTQVTVSS	high polyreactivity
QVQLVESGGGLVQAGGSLRLSCAASGITFQYYAMGWYRQAPGKERELVAAITSSGVSTYYADSVKGRFTISRDNAKNTVYLQMNSLKPEDTAVYYCNTVVRGWSSSAYDDWGQGTQVTVSS	low polyreactivity
QVQLVESGGGLVQAGGSLRLSCAASGITFQYYDMGWYRQAPGKEREFVAAISWRSGRTYYADSVKGRFTISRDNAKNTVYLQMNSLKPDDTAVYYCTAALYGVTTDMDYWGQGTQVTVSS	high polyreactivity
QVQLVESGGGLVQAGGSLRLSCAASGITFRFNAMGWYRQAPGKEREFVAAITYSGDSTYYADSVKGRFTISRDNAKNTVYLQMNSLKPEDTAVYYCAADASSKLYDYWGQGTQVTVSS	low polyreactivity
QVQLVESGGGLVQAGGSLRLSCAASGITFRFYAMGWYRQAPGKERELVAVISRGGGTTYYADSVKGRFTISRDNAKNTVYLQMNSLKPEDTAVYYCNAVIAWYRSDEYDYWGQGTQVTVSS	high polyreactivity
QVQLVESGGGLVQAGGSLRLSCAASGITFRGNAMGWYRQAPGKERELVATISSGGITNYADSVKGRFTISRDNAKNTVYLQMNSLKPEDTAVYSCAADLFVHKPRYQYSFDYWGQGTQVTVSS	low polyreactivity
QVQLVESGGGLVQAGGSLRLSCAASGITFRHNTMGWYRQAPGKERELVSTNYADSVKGRFTISRDNAKNTVYLQMNSLKPEDTAVYYCNADGTFEYDYWGQGTQVTVSS	low polyreactivity
QVQLVESGGGLVQAGGSLRLSCAASGITFRNYAMGWYRQAPGKERELVAAITTSGSRTYYADSVKGRFTISRDNAKNTVYLQMNSLKPEDTAVYYCAAEKAPWQYYDFEYWGQGTQVTVSS	high polyreactivity
QVQLVESGGGLVQAGGSLRLSCAASGITFRNYARGWYRQAPGKERELVAAITTSGSRTYYEDSVKGRFTISRDNAKKTVYLQMNSLKPEDTAVYYCAAQQVPWQYYDFEYWGQGTQVTVSS	high polyreactivity
QVQLVESGGGLVQAGGSLRLSCAASGITFRRNAMGWYRQAPGKERELVARITGSGGSTYYADSVKGRFTISRDNAKNTVYLQMNSLKPEATAVYYCATERYGKYAMDYWGQGTQVTVSS	high polyreactivity
QVQLVESGGGLVQAGGSLRLSCAASGITFRRYAMGWYRQAPGKERELVASITRGGSTSYADSVKGRFRFSRDNAKNTVYLQMNSLKPEDTAVYYCAADAFRGFYWGQGTQVTVSS	high polyreactivity
QVQLVESGGGLVQAGGSLRLSCAASGITFRRYAMGWYRQAPGPEREFVATISGIGGNTYYADSVKGRFTISRANAKNPVYLQMNSLKPEDPAVYYCAADLWAGTYGEYDYWGQGPQVTVSS	high polyreactivity
QVQLVESGGGLVQAGGSLRLSCAASGITFRRYVMGWYRQAPGKERELVARISSDGSTSYADSVKGRFTISRNNAKNTVYLQMNSLKPEDTAVYYCAAVHQWYVRYSTGYNYWGQGTQVTVSS	high polyreactivity
QVQLVESGGGLVQAGGSLRLSCAASGITFRSYAMGWNIQAPGKERELVAAITTGTRTYYADSVKGRFTISRDNAKNTVFLQMKSLKPEDTAVYYCARDGVGRVYGYLTPLGYDYWGHGTQVTVSS	low polyreactivity
QVQLVESGGGLVQAGGSLRLSCAASGITFRSYAMGWYRQAPGKERELVAAISSTGRTYYADSVKGRFTISRDNAKNTVYLQMNSLKPEDTAVYYCATGGQGAFWGQGTQVTVSS	high polyreactivity
QVQLVESGGGLVQAGGSLRLSCAASGITFRSYAMGWYRQAPGKERELVAAITSGASTNYADSVKGRFTISRDNAKNTVYLQMNSLKPEDTAVYYCAATYHTWRGQYLWYDYWGQGTQVTVSS	low polyreactivity
